The target of this assay is T1, 15N,13C-labeled tau K18+ (residues Gln244-Glu380 of 4R tau) (UniProt P10636-8 244-380).
T1 construct: Uniformly 15N,13C isotope-labelled for NMR; purified as the unlabeled protein; also called tau K18+ monomer; tau monomers; source: E. coli BL21-Gold, M9 medium with 15NH4Cl and 13C-glucose, purified (boiling, HiTrap SP HP ion exchange, Superdex 75)
The assay is described as follows: NMR titration; 1H-15N HSQC, 0.1 mM 15N,13C-labeled tau K18+ in 100 mM KCl, 20 mM NaH2PO4, 1 mM TCEP, 5%/95% D2O/H2O, pH 7.0, without or with 1 mM peptide (10-fold molar excess), 25 °C; chemical shift perturbation; one concentration, changes seen over time (2.5 months at 4 °C for D-TLKIVWI). Particulars: both partners purified.

T1 sequence (P10636 561-697): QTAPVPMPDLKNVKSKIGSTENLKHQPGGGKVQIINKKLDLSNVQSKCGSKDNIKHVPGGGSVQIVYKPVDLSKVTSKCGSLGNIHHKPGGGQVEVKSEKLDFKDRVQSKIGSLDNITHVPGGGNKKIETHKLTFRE

B1: L-TLKIVWI (peptide)
peptide: TLKIVWI
notes: L-enantiomer of the designed peptide D-TLKIVWI; All L-amino acids; also called L-TLKIVWX (X = I); source: synthetic peptide (GenScript, purified to ≥98%)
Take B1: the binding result is reported as “binds”.

These data come from PMC11100904, “How short peptides can disassemble ultra-stable tau fibrils extracted from Alzheimer’s disease brain by a strain-relief mechanism” (Research Square, 2024).
